Patent US20210122826A1 (MIT, published 2021)

How the values were obtained:
Assay in all cases: flow, Jurkat, 100 nM Ab
[1] = molecular target: T1, Human Clec10A (human, UniProt Q8IUN9 1-316)
T1 construct: also called hClec10A
T1 sequence: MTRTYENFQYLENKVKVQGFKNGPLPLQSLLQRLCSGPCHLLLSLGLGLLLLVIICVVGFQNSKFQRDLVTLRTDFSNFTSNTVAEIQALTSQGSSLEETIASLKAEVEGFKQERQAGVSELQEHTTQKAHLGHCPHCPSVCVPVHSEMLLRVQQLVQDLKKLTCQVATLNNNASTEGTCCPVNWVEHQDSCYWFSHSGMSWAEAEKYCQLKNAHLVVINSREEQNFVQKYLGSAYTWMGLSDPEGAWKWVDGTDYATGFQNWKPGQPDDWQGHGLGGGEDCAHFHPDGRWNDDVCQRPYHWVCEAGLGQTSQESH

[2] = molecular target: T2, Human KLRG1 (human, UniProt Q96E93 1-195)
T2 construct: also called hKLRG1
T2 sequence: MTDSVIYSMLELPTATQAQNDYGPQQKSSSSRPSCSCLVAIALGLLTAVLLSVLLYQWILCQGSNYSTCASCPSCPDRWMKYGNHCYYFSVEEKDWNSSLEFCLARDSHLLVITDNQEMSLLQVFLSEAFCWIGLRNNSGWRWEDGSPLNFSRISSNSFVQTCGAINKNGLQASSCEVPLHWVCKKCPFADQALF

[3] = molecular target: T3, Human Clec7A (human, UniProt Q9BXN2 1-247)
T3 construct: also called hClec7A
T3 sequence: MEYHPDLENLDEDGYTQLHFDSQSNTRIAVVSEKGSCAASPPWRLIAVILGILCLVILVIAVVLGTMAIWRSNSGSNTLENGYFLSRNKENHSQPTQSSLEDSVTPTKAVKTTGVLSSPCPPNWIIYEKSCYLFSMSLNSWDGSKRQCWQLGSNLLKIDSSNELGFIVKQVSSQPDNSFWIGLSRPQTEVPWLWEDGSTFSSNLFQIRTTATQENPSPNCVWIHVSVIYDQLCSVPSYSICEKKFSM

[4] = molecular target: T4, human CD161 (human, UniProt Q12918 1-225)
T4 construct: UniProt Q12918; also called hCD161; KLRB1

[5] = molecular target: T5, Human OLR1 (human, UniProt P78380 1-273)
T5 construct: also called hOLR1

[6] = molecular target: T6, Human Clec4E (human, UniProt Q9ULY5 1-219)
T6 construct: also called hClec4E
T6 sequence: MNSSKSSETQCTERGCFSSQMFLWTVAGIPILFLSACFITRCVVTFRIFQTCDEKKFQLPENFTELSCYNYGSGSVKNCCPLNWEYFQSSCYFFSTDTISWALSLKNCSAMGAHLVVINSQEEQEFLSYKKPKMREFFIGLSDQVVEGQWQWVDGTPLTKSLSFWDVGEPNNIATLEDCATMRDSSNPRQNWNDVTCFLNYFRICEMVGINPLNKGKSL

[7] = molecular target: T7, Human Clec5A (human, UniProt Q9NY25 1-188)
T7 construct: also called hClec5A
T7 sequence: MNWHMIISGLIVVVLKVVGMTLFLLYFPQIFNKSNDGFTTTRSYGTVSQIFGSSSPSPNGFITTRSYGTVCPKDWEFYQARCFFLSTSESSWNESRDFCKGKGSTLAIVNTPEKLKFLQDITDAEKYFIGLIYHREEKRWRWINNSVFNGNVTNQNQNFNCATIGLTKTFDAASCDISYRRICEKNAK

[8] = molecular target: T8, Human KLRF2 (human, UniProt D3W0D1 1-207)
T8 construct: also called hKLRF2
T8 sequence: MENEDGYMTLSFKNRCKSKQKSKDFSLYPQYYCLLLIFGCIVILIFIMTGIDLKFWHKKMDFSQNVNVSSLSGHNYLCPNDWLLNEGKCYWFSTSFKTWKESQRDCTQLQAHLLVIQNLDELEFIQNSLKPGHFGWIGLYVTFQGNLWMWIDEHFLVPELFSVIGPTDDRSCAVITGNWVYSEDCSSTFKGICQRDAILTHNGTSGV

[9] = molecular target: T9, Human CD94 (human, UniProt Q13241 1-179)
T9 construct: also called hCD94
T9 sequence: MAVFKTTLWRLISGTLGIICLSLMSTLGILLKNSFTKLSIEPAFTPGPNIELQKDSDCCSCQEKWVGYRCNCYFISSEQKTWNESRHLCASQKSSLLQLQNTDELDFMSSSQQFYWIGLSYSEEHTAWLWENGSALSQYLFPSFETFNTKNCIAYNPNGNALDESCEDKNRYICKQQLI

B1: anti-CD161 KW17 (antibody, V domains shown)
VH: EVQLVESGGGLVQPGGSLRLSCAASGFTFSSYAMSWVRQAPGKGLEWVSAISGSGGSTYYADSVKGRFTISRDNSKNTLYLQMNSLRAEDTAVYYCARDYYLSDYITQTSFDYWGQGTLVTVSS
VL: QSVLTQPPSVSGAPGQRVTISCTGSSSNIGAGYDVHWYQQLPGTAPKLLIYGNSNRPSGVPDRFSGSKSGTSASLAITGLQAEDEADYYCQSYDSSHTVFGGGTQLTVL
notes: Human, lambda light chain; scFv-Fc or full IgG not clear; also called KW17-Fc
[1]
  MFI normalized to WT: 0.96
[2]
  MFI normalized to WT: 1.05
[3]
  MFI normalized to WT: 1.13
[4]
  MFI normalized to WT: 53.9
[5]
  MFI normalized to WT: 0.98
[6]
  MFI normalized to WT: 0.94
[7]
  MFI normalized to WT: 1.04
[8]
  MFI normalized to WT: 1.01
[9]
  MFI normalized to WT: 0.95
